Reference: patent publication US20190322750A1

Molecular target: T1, ITGA6
T1 sequence (P23229 whole entry, species assumed, looked up): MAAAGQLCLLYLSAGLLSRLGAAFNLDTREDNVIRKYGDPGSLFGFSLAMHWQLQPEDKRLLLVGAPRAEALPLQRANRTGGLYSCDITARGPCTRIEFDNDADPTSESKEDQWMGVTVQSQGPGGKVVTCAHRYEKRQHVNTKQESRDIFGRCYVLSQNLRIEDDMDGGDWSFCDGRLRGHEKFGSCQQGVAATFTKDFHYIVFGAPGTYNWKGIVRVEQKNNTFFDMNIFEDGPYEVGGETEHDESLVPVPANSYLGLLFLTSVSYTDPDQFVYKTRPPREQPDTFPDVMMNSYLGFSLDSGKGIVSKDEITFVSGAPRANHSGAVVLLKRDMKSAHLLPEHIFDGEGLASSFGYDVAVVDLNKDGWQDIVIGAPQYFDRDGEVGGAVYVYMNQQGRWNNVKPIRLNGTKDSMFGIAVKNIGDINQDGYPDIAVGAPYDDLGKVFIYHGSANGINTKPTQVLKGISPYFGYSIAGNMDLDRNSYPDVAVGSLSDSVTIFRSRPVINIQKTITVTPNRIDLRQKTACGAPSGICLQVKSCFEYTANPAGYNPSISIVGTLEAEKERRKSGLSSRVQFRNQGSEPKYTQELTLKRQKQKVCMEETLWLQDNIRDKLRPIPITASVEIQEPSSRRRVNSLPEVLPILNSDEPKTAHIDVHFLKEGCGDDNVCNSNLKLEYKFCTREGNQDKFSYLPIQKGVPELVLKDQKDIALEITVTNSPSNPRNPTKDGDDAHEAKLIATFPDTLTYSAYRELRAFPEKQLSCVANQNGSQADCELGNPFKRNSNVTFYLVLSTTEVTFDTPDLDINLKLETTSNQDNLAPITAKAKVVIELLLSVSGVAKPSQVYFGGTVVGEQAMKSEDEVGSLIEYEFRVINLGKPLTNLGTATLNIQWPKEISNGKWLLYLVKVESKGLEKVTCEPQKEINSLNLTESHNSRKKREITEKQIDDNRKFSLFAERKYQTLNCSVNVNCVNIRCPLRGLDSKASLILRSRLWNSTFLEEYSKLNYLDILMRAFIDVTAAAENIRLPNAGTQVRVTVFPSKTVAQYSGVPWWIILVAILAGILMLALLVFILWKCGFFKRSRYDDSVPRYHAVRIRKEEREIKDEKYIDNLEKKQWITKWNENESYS
Test: ELISA on coated antigen, column ITGA6

Chain of Avelumab (antibody) (VH): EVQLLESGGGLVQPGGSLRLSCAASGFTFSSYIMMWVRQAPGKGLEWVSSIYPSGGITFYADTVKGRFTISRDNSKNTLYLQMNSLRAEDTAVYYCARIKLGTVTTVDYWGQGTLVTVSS
Chain of Avelumab (antibody) (VL): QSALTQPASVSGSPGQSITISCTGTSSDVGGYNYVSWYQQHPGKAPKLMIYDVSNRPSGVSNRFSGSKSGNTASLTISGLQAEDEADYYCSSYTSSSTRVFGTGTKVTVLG

absorbance at 490 nm: 0.6
Substance: Avelumab (antibody)
